Patent US20140178390A1 (published 2014)

T1: Cynomolgus CXCR7 (cynomolgus, UniProt P25106 1-362 (human entry))
T1 construct: On transfected HEK293 cells; also called cCXCR7; cyno CXCR7
T1 chain: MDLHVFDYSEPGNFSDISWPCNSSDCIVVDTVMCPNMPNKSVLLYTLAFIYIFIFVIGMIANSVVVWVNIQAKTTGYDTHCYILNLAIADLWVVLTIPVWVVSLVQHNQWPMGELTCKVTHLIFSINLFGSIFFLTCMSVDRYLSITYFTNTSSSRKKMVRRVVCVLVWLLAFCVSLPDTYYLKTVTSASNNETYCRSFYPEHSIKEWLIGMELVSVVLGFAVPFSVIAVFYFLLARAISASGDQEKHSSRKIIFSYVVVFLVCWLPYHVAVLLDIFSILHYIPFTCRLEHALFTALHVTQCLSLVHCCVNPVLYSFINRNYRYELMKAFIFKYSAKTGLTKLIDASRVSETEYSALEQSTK

B1: Nanobody 08A10 with Tag-1 (VHH)
VHH: EVQLVESGGGLVQAGGSLRLSCAASGSIFSIAAMGWYRQATGKQRELVATITDGGTTTYADSVKGRVTISRDRSANTVYLAMNNLKPDDTAVYYCYAYLRYTSRVPGDNYWGQGTQVTVSS
notes: periplasmic extract in the screening FACS
B2: Nanobody 08A10 with Tag-2 (VHH)
VHH: B1 VHH
notes: Purified from E. coli periplasm
B3: Nanobody 01C10 with Tag-1 (VHH)
VHH: EVQLVESGGGLVQTGASLRLSCAASGRTFSNYAMGWFRQAPGKERERVAAITPRAFTTYYADSVKGRFTISRDNAKNTAYLQMVSLKPEDTAVYYCAAQLVGSGSNLGRQESYAYWGQGTQVTVSS
B4: Nanobody 01C10 with Tag-2 (VHH)
VHH: B3 VHH
notes: as for B2
B5: Nanobody 07C03 with Tag-1 (VHH)
VHH: EVQLVESGGGLVQAGESLTLSCAASGRTLSAYIMGWFRQAPGKEREFVAGIWSGGYTHLADSAKGRFSISRDNAKNTVYLQMNGLKPEDTAVYYCAAGLRGRQYSNWGQGTQVTVSS
notes: as for B1
B6: Nanobody 07C03 with Tag-2 (VHH)
VHH: B5 VHH
notes: as for B2
B7: Mab 11G8 (R&D Systems) (antibody, V domains shown)
VH: EVKLVESGGDLVQPGGSLKLSCATSGFTFSDYYMFWVRQTPEKRLEWVAYITNGGDRSYYSDTVTGRFIISRDNAKNTLYLQMSRLKSEDTAMYYCARQGNWAAWFVYWGQGTLVTVSA
VL: DVLMTQTPLSLPVSLGDQASISCRSSHYIVHSDGNTYLEWYLQKPGQSPKLLIYKVSNRFSGVPDRFSGSGSGTDFTLKISRVEAEDLGIYYCFQGSHVPLTFGAGTKLELKR
B8: Nanobody 08A05 with Tag-1 (VHH)
VHH: EVQLVESGGGLVQAGDSLRLSCAASGLTFSNYDMGWFRQAPGKEREFVGASWWSGGAPYYSDSVKGRFTISRDNAKNTVYLQANSLRPEDTAVYYCAAKRLRSFASGGSYDYWGQGTQVTVSS
notes: as for B1
B9: Nanobody 08A05 with Tag-2 (VHH)
VHH: B8 VHH
notes: as for B2
B10: Nanobody 07B11 with Tag-1 (VHH)
VHH: EVQLVESGGNLVQAGGSLGLSCAASVSISSIHIMGWYRQAPGKQRDLVATITSGGSTAYADSVKGRFTVSKDNAKNTVYLQMDSLKPEDTSVYYCAAEVRNGVFGKWNHYWGQGTQVTVSS
notes: as for B1
B11: Nanobody 07B11 with Tag-2 (VHH)
VHH: B10 VHH
notes: as for B2

How the values were obtained:
Human CXCR7 [1] = target: T2, Human CXCR7 (human, UniProt P25106 1-362); experiment: FACS, Hek293 hCXCR7 over Hek293 wt cells
T2 construct: see assay field; also called hCXCR7
T2 sequence (P25106 whole entry): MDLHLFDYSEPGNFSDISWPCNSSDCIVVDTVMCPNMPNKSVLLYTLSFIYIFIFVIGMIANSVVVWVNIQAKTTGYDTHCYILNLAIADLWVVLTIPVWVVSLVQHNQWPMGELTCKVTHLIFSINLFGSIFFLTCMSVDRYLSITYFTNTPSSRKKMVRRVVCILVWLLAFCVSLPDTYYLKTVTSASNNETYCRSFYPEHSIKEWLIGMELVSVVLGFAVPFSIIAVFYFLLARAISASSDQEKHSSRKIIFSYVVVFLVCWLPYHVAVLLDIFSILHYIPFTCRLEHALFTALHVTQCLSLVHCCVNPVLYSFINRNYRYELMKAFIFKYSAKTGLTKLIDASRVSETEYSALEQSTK
Description: (§1) Clones representing distinct Nanobody B-cell lineages were tested as periplasmic extracts for their binding to cell surface exposed CXCR7. In this assay, 5-fold dilutions of periplasmic extract were incubated with Hek293 hCXCR7 and Hek293 wt cells. Binding of the Nanobodies was detected using mouse anti-myc (Serotec), followed by anti-mouse IgG-PE (Jackson Immununoresearch).

Human CXCR7 [2] = target: T2, Human CXCR7; experiment: FACS, periplasmic extract on Hek293 hCXCR7 cells
Description: as §1

Human CXCR7 [3] = target: T2, Human CXCR7; experiment: phage ELISA on immobilized hCXCR7 VLPs, OD 450 nm
Description: (§2) From all round 2 selection outputs clones were screened in phage ELISA on 2 units of immobilized CXCR7VLPs applying 10-fold dilutions of phage supernatant. […] The reaction was stopped with H₂SO₄ and the absorbance was measured at 450 nm using Sunrise TECAN spectrophotometer (TECAN). Nanobodies, showing a minimally 2-fold increased ELISA signal on hCXCR7VLPs over non-transfected control VLPs, were considered to be CXCR7 specific. CXCR7 specific Nanobodies were sequenced and redundant Nanobodies (identical AA sequence) were removed.

Human CXCR7 [4] = target: T2, Human CXCR7; experiment: phage ELISA, hCXCR7 VLPs over non-transfected control VLPs
Description: as §2

Mouse CXCR7 [5] = target: T3, Mouse CXCR7 (mouse, UniProt P56485 1-362); experiment: FACS on HEK293 cells transfected with pcDNA3.1-mCXCR7
T3 construct: On transfected HEK293 cells; also called mCXCR7
T3 sequence (P56485 whole entry): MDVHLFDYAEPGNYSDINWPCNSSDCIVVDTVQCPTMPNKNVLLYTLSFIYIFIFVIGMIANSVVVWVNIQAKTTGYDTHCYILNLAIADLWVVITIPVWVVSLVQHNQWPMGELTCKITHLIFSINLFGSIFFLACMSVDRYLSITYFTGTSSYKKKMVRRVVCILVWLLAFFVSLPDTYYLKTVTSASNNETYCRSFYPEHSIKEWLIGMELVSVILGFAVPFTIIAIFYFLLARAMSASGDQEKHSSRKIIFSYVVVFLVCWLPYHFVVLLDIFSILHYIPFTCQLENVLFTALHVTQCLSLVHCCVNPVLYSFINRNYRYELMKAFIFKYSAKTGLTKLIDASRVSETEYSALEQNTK
Source text: (§3) HEK293 cells transfected respectively with pcDNA3.1-hCXCR7 and pcDNA3.1-mCXCR7 were used to test cross-reactive binding of Nanobodies to mouse CXCR7 in FACS analysis. […] Nanobody binding was detected using mouse anti-myc (Serotec) and anti-mouse IgG-PE (Jackson Immunoresearch) and Mab binding by goat anti-mouse IgG-PE (Jackson Immunoresearch).

Human CXCR7 [6] = target: T2, Human CXCR7; experiment: [125I]-CXCL12 displacement on NIH3T3-hCXCR7 cells
Description: (§4) After incubation, cells were washed twice, lysed with RIPA buffer and the ¹²⁵I signal was measured.

Human CXCR7 [7] = target: T2, Human CXCR7; experiment: FACS binding, purified protein on stable HEK-CXCR7 cells
Cynomolgus CXCR7 = target: T1, Cynomolgus CXCR7; experiment: FACS on HEK293 cells expressing cynomolgus CXCR7, 800 nM Nanobody
Description: as §3
Cross-reactive binding to cynomolgus CXCR7 was assessed in the same way.

Human CXCR7 [8] = target: T2, Human CXCR7; experiment: [125I]-CXCL12 displacement on NIH3T3-hCXCR7 cells, relative to cold SDF-1
Description: as §4

Mouse CXCR7 [9] = target: T3, Mouse CXCR7; experiment: FACS on HEK293 cells transfected with pcDNA3.1-mCXCR7, 800 nM Nanobody
Source text: as §3

Human CXCR7 [10] = target: T2, Human CXCR7; experiment: competition FACS with 4 nM biotinylated SDF-1 on HEK-hCXCR7 cells

Binder | Fold Hek CXCR7/CXCR4 (Human CXCR7 [1]) [fold] | Hek-CXCR7 [MCF] (Human CXCR7 [2]) | CXCR7-LP 2U/well [OD] (Human CXCR7 [3]) | Fold CXCR7-LP/Null-LP (Human CXCR7 [4]) [fold] | binding result (Mouse CXCR7 [5]) | Ki (Human CXCR7 [6]) [nM] | Plateau [mcf] (Human CXCR7 [7]) | binding result (Cynomolgus CXCR7) | Average SDF-1 displacement (%) (Human CXCR7 [8]) | binding result (Mouse CXCR7 [9]) | competition relative to unlabelled SDF-1 (%) (Human CXCR7 [10])
B1 | 85.1 | 27400 | 0.104 | 17.3 | – | – | – | – | – | – | –
B2 | – | – | – | – | no binding (tested: 800 nM) | 12.1 | 34900 | binds | 75 | – | –
B3 | – | – | 0.145 | 4.2 | – | – | – | – | – | – | –
B4 | – | – | – | – | – | 20.7 | – | binds | 31 | binds | –
B5 | 73.2 | 23400 | 0.053 | 4.4 | – | – | – | – | – | – | –
B6 | – | – | – | – | – | 12.2 | 33100 | binds | 78 | binds | > 95
B7 | – | – | – | – | – | 4.4 | – | – | 24 | – | –
B8 | 60.1 | 18600 | 0.019 | 2.4 | – | – | – | – | – | – | –
B9 | – | – | – | – | – | 13.6 | 28500 | binds | 77 | binds | –
B10 | 110 | 42900 | 0.041 | 4.1 | – | – | – | – | – | – | –
B11 | – | – | – | – | no binding (tested: 800 nM) | 96.1 | 24900 | binds | 75 | – | –
